Measured values published in paper PMC2938385 (Molecular Biology of the Cell, 2010).

Columns and labels:
[1] = molecular target: T1, mDia2N (mDia2 residues 150-533) (UniProt Q9Z207 150-533); experiment: SPR
T1 sequence (looked up): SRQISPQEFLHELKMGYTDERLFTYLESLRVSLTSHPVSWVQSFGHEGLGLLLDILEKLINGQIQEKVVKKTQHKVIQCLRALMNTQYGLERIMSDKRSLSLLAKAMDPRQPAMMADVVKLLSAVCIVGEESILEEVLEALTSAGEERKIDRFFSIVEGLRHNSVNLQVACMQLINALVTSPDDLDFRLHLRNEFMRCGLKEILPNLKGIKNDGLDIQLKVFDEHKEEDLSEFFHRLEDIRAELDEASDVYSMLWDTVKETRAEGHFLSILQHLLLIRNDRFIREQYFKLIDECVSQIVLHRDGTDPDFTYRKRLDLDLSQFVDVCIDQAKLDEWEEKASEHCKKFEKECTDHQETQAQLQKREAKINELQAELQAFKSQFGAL

[2] = molecular target: T2, mDia3N (mDia3 residues 166-542) (UniProt O70566 166-542); experiment: SPR
T2 sequence (looked up): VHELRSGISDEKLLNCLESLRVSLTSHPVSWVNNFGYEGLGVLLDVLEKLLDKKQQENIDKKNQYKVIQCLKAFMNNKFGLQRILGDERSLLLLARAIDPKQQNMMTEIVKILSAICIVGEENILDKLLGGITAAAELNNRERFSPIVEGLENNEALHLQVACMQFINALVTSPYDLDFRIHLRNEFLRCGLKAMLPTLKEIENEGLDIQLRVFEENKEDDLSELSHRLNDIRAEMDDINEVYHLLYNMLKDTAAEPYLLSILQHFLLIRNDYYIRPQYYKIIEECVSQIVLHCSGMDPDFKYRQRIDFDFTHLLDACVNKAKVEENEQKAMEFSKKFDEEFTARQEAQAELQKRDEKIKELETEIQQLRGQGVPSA

B1: GST-anillin (1-91) (domain or fragment, human, UniProt Q9NQW6-2 1-91, looked up)
chain: MDPFTEKLLERTRARRENLQRKMAERPTAAPRSMTHAKRARQPLSEASNQQPLSGGEEKSCTKPSPSKKRCSDNTEVEVSNLENKQPVEST
**Q.** Which Kd [1] does the source give for B1 here?
**A.** 236 nM

**Q.** And the Kd [2]?
**A.** 1020 nM
